The values below come from PMC5737966 (Nature structural & molecular biology, 2017).

Positions count from the first letter of the chain named. In names and notes the source's numbering stands. Where two headings read alike, the source gives them in different places.

Assay [1] addresses human β-cardiac short S1 (sS1) with a C-terminal GFP, wild type (human) (UniProt P12883). Briefly: MST.
The target in the next assay is actin. Briefly: MST.
Assay [2] concerns the target heavy chain (HC) of the 2-hep HMM construct of human β-cardiac myosin. Nature of the assay: stoichiometry of the purified complex.
For assay [3], the target named is full-length recombinant human cardiac MyBP-C, nonphosphorylated (human, UniProt Q14896 1-1274). Nature of the assay: MST.
Assay [4] addresses R403Q human β-cardiac sS1 with a C-terminal GFP (human, UniProt P12883 1-808, R403Q). Nature of the assay: MST.
Assay [5] has as its target T1, human β-cardiac short S1 (sS1) with a C-terminal GFP, wild type (human, UniProt P12883 1-808). Briefly: MST.
Assay [6] addresses R453C human β-cardiac sS1 with a C-terminal GFP (human, UniProt P12883 1-808, R453C). Nature of the assay: MST.
Assay [7] concerns the target R249Q human β-cardiac sS1 with a C-terminal GFP (human, UniProt P12883 1-808, R249Q). Nature of the assay: MST.
The target in assay [8] is T1, human β-cardiac short S1 (sS1) with a …. Briefly: MST. This is another data set of the same source.
Assay [9] deals with MyBP-C (construct and phosphorylation state not told for these experiments) (human, UniProt Q14896 1-1274). Briefly: MST.
Chain of MyBP-C (construct and phosphorylation state not told for these experiments) (Q14896 whole entry): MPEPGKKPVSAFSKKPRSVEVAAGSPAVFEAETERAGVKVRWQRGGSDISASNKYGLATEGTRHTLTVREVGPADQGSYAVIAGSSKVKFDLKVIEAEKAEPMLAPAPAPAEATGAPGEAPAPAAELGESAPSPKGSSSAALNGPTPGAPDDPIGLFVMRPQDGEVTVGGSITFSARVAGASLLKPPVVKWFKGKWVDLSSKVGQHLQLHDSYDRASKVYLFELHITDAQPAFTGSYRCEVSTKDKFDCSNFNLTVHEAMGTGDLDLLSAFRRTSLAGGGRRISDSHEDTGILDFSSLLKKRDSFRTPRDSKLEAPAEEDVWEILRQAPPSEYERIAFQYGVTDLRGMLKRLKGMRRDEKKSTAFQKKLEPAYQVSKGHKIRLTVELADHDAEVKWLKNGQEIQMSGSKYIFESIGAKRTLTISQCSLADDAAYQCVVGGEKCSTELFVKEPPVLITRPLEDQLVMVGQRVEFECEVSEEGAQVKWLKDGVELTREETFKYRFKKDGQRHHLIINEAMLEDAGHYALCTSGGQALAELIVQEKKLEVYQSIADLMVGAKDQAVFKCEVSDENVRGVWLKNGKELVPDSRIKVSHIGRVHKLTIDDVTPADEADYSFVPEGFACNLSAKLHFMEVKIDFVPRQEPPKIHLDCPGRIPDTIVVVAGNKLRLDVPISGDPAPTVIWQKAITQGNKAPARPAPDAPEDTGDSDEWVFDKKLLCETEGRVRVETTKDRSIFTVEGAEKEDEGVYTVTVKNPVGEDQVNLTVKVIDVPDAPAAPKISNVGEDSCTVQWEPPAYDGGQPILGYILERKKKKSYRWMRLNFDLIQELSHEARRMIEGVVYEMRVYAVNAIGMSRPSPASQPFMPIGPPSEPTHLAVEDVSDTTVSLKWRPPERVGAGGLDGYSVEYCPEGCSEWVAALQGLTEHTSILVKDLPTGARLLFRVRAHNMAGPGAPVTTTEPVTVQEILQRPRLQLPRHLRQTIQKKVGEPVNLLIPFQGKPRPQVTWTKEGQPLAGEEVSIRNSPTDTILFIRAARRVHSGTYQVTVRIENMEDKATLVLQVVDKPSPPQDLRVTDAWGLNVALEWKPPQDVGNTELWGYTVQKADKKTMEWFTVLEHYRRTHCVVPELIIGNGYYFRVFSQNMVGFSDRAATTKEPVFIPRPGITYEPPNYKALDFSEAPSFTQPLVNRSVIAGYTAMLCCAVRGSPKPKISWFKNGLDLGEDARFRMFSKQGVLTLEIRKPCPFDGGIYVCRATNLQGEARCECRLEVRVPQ

Chain of full-length recombinant human cardiac MyBP-C, nonphosphorylated (Q14896 whole entry): as above

Regarding actin (natural protein), the Kd – broadly, the equilibrium constant for the complex coming apart – in assay [1] worked out at 0.25 µM. Regarding “MyBP-C (construct and phosphorylation state not told for these experiments) (from UniProt Q14896 1-1274) (natural protein)”, the Kd with actin was determined as 5 µM. With “human cardiac myosin essential light chain (ELC) (from UniProt P08590 1-195) (natural protein)”, the stoichiometry N (commonly a count of units in the complex or per binding partner) in assay [2] stood at 1.

B1: human β-cardiac short S1 (sS1) labelled with Cy5 on cysteine residues (domain or fragment, UniProt P12883 1-808, looked up)
chain: MGDSEMAVFGAAAPYLRKSEKERLEAQTRPFDLKKDVFVPDDKQEFVKAKIVSREGGKVTAETEYGKTVTVKEDQVMQQNPPKFDKIEDMAMLTFLHEPAVLYNLKDRYGSWMIYTYSGLFCVTVNPYKWLPVYTPEVVAAYRGKKRSEAPPHIFSISDNAYQYMLTDRENQSILITGESGAGKTVNTKRVIQYFAVIAAIGDRSKKDQSPGKGTLEDQIIQANPALEAFGNAKTVRNDNSSRFGKFIRIHFGATGKLASADIETYLLEKSRVIFQLKAERDYHIFYQILSNKKPELLDMLLITNNPYDYAFISQGETTVASIDDAEELMATDNAFDVLGFTSEEKNSMYKLTGAIMHFGNMKFKLKQREEQAEPDGTEEADKSAYLMGLNSADLLKGLCHPRVKVGNEYVTKGQNVQQVIYATGALAKAVYERMFNWMVTRINATLETKQPRQYFIGVLDIAGFEIFDFNSFEQLCINFTNEKLQQFFNHHMFVLEQEEYKKEGIEWTFIDFGMDLQACIDLIEKPMGIMSILEEECMFPKATDMTFKAKLFDNHLGKSANFQKPRNIKGKPEAHFSLIHYAGIVDYNIIGWLQKNKDPLNETVVGLYQKSSLKLLSTLFANYAGADAPIEKGKGKAKKGSSFQTVSALHRENLNKLMTNLRSTHPHFVRCIIPNETKSPGVMDNPLVMHQLRCNGVLEGIRICRKGFPNRILYGDFRQRYRILNPAAIPEGQFIDSRKGAEKLLSSLDIDHNQYKFGHTKVFFKAGLLGLLEEMRDERLSRIITRIQAQSRGVLARMEYKKLLERR
modifications: Cy5-labeled cysteine residues
For B1, the Kd in assay [3] came out at 17 ± 2 µM.

B2: proximal part of human cardiac myosin subfragment 2 (proximal S2), wild type (domain or fragment, UniProt P12883 841-966, looked up)
chain: KSAEREKEMASMKEEFTRLKEALEKSEARRKELEEKMVSLLQEKNDLQLQVQAEQDNLADAEERCDQLIKNKIQLEAKVKEMNERLEDEEEMNAELTAKKRKLEDECSELKRDIDDLELTLAKVEK
Take B2: the dissociation constant Kd in [4] is 54 ± 4 µM; in assay [5] it was 46 ± 7 µM; in [6] it was above 90 µM; in assay [7], above 300 µM; in [8], 4 ± 1 µM.

B3: proximal S2 of human cardiac myosin labelled with Cy5 (domain or fragment, UniProt P12883 841-966, looked up)
chain: B2 chain
modifications: Cy5 (site not stated)
In assay [9], B3 registered a dissociation constant Kd of around 7 µM.

B4: R870H mutant proximal S2 of human cardiac myosin (domain or fragment, UniProt P12883 841-966, looked up)
chain: B2 chain with R30H
In assay [5], B4 came in with a Kd of 59 ± 2 µM.

B5: human cardiac myosin regulatory light chain (RLC) (natural protein)
chain: MAPKKAKKRAGGANSNVFSMFEQTQIQEFKEAFTIMDQNRDGFIDKNDLRDTFAALGRVNVKNEEIDEMIKEAPGPINFTVFLTMFGEKLKGADPEETILNAFKVFDPEGKGVLKADYVREMLTTQAERFSKEEVDQMFAAFPPDVTGNLDYKNLVHIITHGEEKD
In assay [2], B5 registered a stoichiometry N of 1.
